In this assay the target is hPTH (1-34) (human) (UniProt P01270). Set-up: unit not given beside the values.
“Compound 1 (Ser-Glu-Ile-Gln-Leu-Met-His-Asn-Leu-Gly-Lys-Ser-Ile-Gln-Asp-Leu-Arg-Arg-Arg-Phe-Phe-Leu-His-His-Leu-Ile-Ala-Glu-Ile-His-Thr-Ala-NH2) (peptide)”: the IC50: 50% inhibition of cAMP production in cultured mouse osteoblast MC3T3-E1 cells amounted to 0.007. Substance “Compound 3 (Ile-Gln-Leu-Met-His-Asn-Leu-Gly-Lys-Ser-Ile-Gln-Asp-Leu-Arg-Arg-Arg-Phe-Phe-Leu-His-His-Leu-Ile-Ala-Glu-Ile-His-Thr-Ala-NH2) (peptide)” registered an IC50: 50% inhibition of cAMP production in cultured mouse osteoblast MC3T3-E1 cells of 0.015.

“[Tyr^34]-hPTH (3-34)-NH2 (from UniProt P01270) (peptide)” came in with an IC50: 50% inhibition of cAMP production in cultured mouse osteoblast MC3T3-E1 cells of 1.

These data come from patent US5252705.
